Numbered stars: 1 amine (or outer) side, 2 acyl side, 3 side chain; on linkers, the order of the positions; unused ones are H or OH. Square brackets hold non-standard residues; d marks the D form. Peptide text beside a SMILES is read from it. * marks the point of attachment. X2 = CC1(C)C(=O)N(c2ccc(C#N)c(C(F)(F)F)c2)C(=S)N1c1ccc(C(=O)*)c(F)c1; X1 = O=C1CCC(N2C(=O)c3cccc(N(CC(=O)[*:2])[*:1])c3C2=O)C(=O)N1; EuK = O=C(O)CC[C@H](NC(=O)N[C@@H](CCCCN*)C(=O)O)C(=O)O; 2Nal = N[C@@H](Cc1ccc2ccccc2c1)C(=O)O

The target of one series is T1, AR protein (Homo sapiens, UniProt P10275).
T1 sequence (P10275 1-920): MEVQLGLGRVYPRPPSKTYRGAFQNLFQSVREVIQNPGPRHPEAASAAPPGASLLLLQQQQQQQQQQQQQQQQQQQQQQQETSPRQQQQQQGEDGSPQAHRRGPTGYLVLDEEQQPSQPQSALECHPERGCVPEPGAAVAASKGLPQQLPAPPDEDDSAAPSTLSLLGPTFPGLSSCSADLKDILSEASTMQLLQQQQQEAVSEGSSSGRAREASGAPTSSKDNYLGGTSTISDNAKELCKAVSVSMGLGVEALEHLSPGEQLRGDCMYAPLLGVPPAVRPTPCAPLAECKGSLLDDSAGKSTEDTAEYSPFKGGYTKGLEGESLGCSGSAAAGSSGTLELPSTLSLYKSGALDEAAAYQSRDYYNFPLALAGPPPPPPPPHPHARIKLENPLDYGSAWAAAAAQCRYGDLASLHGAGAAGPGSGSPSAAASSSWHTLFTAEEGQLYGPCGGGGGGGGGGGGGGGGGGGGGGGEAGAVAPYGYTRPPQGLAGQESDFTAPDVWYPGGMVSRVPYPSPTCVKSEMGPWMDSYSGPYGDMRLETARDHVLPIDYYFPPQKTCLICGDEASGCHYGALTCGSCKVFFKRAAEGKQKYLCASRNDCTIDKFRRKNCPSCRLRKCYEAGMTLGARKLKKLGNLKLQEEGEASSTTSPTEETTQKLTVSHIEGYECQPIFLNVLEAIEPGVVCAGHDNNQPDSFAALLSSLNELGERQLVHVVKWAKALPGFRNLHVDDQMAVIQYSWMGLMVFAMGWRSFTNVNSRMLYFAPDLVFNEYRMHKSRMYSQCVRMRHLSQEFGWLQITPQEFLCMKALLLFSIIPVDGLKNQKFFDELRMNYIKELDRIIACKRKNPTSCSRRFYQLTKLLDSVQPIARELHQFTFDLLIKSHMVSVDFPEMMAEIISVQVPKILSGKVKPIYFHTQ
Put plainly: MST binding affinity, Psa-AR and AR protein. Particulars: RED-NHS-labeled AR 400 nM, PBS-T, 22 °C, n = 3, read-out: Kd, binding affinity between Psa-AR and AR. The source says: Fig. 3 Polynary nanocomposite (AR: Psa-AR: CRBN) formation. a Dose‒response curve for the binding interaction between Psa-AR and the AR protein; n = 3 per group. b Dose‒response curve for the binding interaction between Psa-AR and the CRBN protein; n = 3 per group. c Dose‒response curve for the binding interaction between the binary complex (Psa-AR: AR) and CRBN, n = 3 per group. d In vitro Psa-AR self-assembly, protein binding and degradation. e Representative 22Rv1 cell CLSM images of FITC-labeled Psa-AR assembly (green channel) interacting with HSP90 (red channel) and its colocalization analysis (1–1’). […] Scale bar: 10 μm.
MST (NanoTemper Technologies GmbH, Munich, Germany) was utilized to evaluate the binding affinity between Psa-AR and RED-NHS-labeled PSMA, AR, or CRBN proteins. The PSMA, AR, and CRBN proteins were labeled with the Protein Labeling Kit RED-NHS 2nd Generation (Amine Reactive). RED-PSMA, RED-AR, and RED-CRBN proteins were diluted to a final concentration of 400 nM with PBS-T buffer (0.05% Tween 20), where the fluorescence signals satisfied the typical detection limit of the Monolith NT.115 instrument (NanoTemper Technologies). The binding affinity between Psa-AR and the RED-NHS-labeled AR protein was assessed. […] Then, 10 µL of RED-CRBN was added to each sample to achieve a final concentration of 400 nM. […] The data were analyzed by NanoTemper analysis software.

Series [1] in a line: ThT assay of self-assembly (critical assembly concentration, assembly kinetics). The class given is physicochemical.
Series [2] is described as follows: TEM of assemblies after PSMA addition. The class given is physicochemical. Particulars: 40 μM, within 0.5 h of PSMA engagement.
Series [3] deals with RWPE-1 (PSMA^low) and 22Rv1 (PSMA^high) cells. Description: Uptake in RWPE-1 versus 22Rv1 cells (flow cytometry, IF). The class given is cell-based. The procedure: Fig. 2 a Representative 22Rv1 cell CLSM images of FITC-labeled Psa-AR (40 μM) assembly (green channel) interacting with PSMA (red channel) and its colocalization analysis (1–1’). Scale bar: 10 μm. b Representative SEM images of 22Rv1 cells after treatment with Psa-AR (40 μM) for 4 h. Scale bar: 1 μm. Scale bar: 200 nm (zoom in). c Representative 22Rv1 cell CLSM images of FITC-labeled P-AR (40 μM) (green channel) interacting with PSMA (red channel). Scale bar: 10 μm. d Representative SEM images of 22Rv1 cells after treatment with P-AR (40 μM) for 4 h. Scale bar: 1 μm. Scale bar: 200 nm (zoom in). e The uptake of either Psa-AR or P-AR by 22Rv1 (PSMA^high) and RWPE-1 (PSMA^low) cells was examined by flow cytometry, followed by comprehensive quantitative analysis (f), n = 3 per group. g Representative 22Rv1 cell CLSM images of FITC-labeled Psa-AR assembly (green channel) with lysosomes (red channel) and colocalization analysis. Scale bar: 10 μm. h Representative CLSM images of 22Rv1 cells after incubation with FITC-labeled Psa-AR (green channel) for 12 h. […]
A total of 1 × 10^5 22Rv1 cells per well were seeded in 6-well plates in DMEM containing 10% fetal bovine serum and 1% penicillin‒streptomycin. […] Then, the cells were collected to evaluate fluorescence expression via flow cytometry. […] The cells were then collected and analyzed for fluorescence expression via flow cytometry.

Compound `CC1(C)C(=O)N(c2ccc(C#N)c(C(F)(F)F)c2)C(=S)N1c1ccc(C(=O)NCCCC[C@H](NC(=O)CNc2cccc3c2C(=O)N(C2CCC(=O)NC2=O)C3=O)C(=O)N[C@@H](CS)C(=O)N[C@@H](CCC(N)=O)C(=O)N[C@@H](Cc2ccc(O)cc2)C(=O)N[C@@H](CC(N)=O)C(=O)N[C@@H](CCC(N)=O)C(=O)N[C@@H](Cc2ccc(O)cc2)C(=O)N[C@@H](Cc2ccc(O)cc2)C(=O)N[C@@H](Cc2ccc3ccccc3c2)C(=O)NCCCC[C@H](NC(=O)N[C@@H](CCC(=O)O)C(=O)O)C(=O)O)c(F)c1` (stereo partly drawn) [Psa-AR] (H-[X1]K(X2)CQYNQYY[2Nal]-EuK) displayed an FTIR amide I peak without PSMA of 1660 cm⁻¹. For the same compound, the Kd on AR protein amounted to 950 nM. In addition, the “lowering of CAC by PSMA binding” value in series [1] (ThT assay, 95.5–10.9 μM) is 8.76 fold. Besides, in series [1] (ThT kinetic curve, 40 μM, PSMA added), the “time to full assembly equilibrium, PSMA-bound” value amounted to 12 h. Moreover, the “t1/2 of self-assembly (50% assembly), PSMA-bound” value in series [1] (ThT kinetic curve, 40 μM, PSMA added, n = 3) is 1.4 h. Besides, in series [1] (ThT kinetic curve, 40 μM, without PSMA), the “time to full assembly equilibrium, unbound” value is listed as 60 h. Besides, the “t1/2 of self-assembly (50% assembly), unbound” value in series [1] (ThT kinetic curve, 40 μM, without PSMA, n = 3) is recorded as 11.4 h. Besides, the “critical assembly concentration (CAC) with PSMA added” value in series [1] (standard ThT assay, PSMA added, n = 3, P-AR tested up to 50 μM) was 10.9 µM. Further, the “critical assembly concentration (CAC)” value in series [1] (standard ThT assay, without PSMA, n = 3) worked out at 95.5 µM. The “diameter of spherical nanoparticles” value in series [2] is reported as 200–250 nm. Further, in series [3] (FITC-labeled, 40 µM, 24 h, flow cytometry, n = 3), the “selectivity ratio between PSMA^low RWPE-1 and PSMA^high 22Rv1 cells, relative to P-AR” value is 13 fold. Further, the “cellular uptake in RWPE-1 cells” value in series [3] (IF, RWPE-1 (PSMA^low) cells) is reported as “low cellular uptake”.

In general, Kd refers to the concentration at which binding is half-saturated.

These data come from article PMC12521527, “In vivo self-assembled nano-PROTAC for the dual degradation of AR and HSP90 to overcome castration-resistant prostate cancer resistance” (Signal Transduction and Targeted Therapy, 2025).
